Data as given in patent publication US20230241072A1, “ANTHRACYCLINE DERIVATIVES” (ALMAC DISCOVERY LIMITED, priority 2019, published 2023).

B1: P3A1hFc-PEG4-vc-PAB-EDA-PNU (Fc fusion, not shown: a dimerising Fc or GST)
chain: TRVDQTPRTATKETGESLTINCVLTDTSYGLYSTSWFRKNPGTTDWERMSIGGRYVESVNKGAKSFSLRIKDLTVADSATYYCKAREARHPWLRQWYDGAGTVLTVNGGGGSGGGGSGGGGS
modifications: MA-PEG4-vc-PAB-EDA-PNU159682 on Cys 239 (EU) of the Fc
B2: P3A1hFc(442)-PEG4-va-EDA-PNU (Fc fusion, not shown: a dimerising Fc or GST)
chain: TRVDQTPRTATKETGESLTINCVLTDTSYGLYSTSWFRKNPGTTDWERMSIGGRYVESVNKGAKSFSLRIKDLTVADSATYYCKAREARHPWLRQWYDGAGTVLTVNGGGGSGGGGSGGGGS
modifications: MA-PEG4-va-EDA-PNU159682 on Cys 442 (EU) of the Fc
B3: P3A1hFc-PEG4-va-EDA-PNU (Fc fusion, not shown: a dimerising Fc or GST)
chain: TRVDQTPRTATKETGESLTINCVLTDTSYGLYSTSWFRKNPGTTDWERMSIGGRYVESVNKGAKSFSLRIKDLTVADSATYYCKAREARHPWLRQWYDGAGTVLTVNGGGGSGGGGSGGGGS
modifications: MA-PEG4-va-EDA-PNU159682 on Cys 239 (EU) of the Fc

Target: ROR1 on the surface of human cancer cells (human) (UniProt Q01973)
Experiment: cell-based or functional assay

Binder | IC50 (nM) 96 h, cell viability (Cell Titre Glo), 697 cells | IC50 (nM) 96 h, cell viability (Cell Titre Glo), Kasumi-2 cells | IC50 (nM) 96 h, cell viability (Cell Titre Glo), MHH-ES1 cells | IC50 (nM) 96 h, cell viability (Cell Titre Glo), PA-1 cells | ROR1 targeting/2V non-targeting window, 697 cells | ROR1 targeting/2V non-targeting window, Kasumi-2 cells | ROR1 targeting/2V non-targeting window, MHH-ES1 cells | ROR1 targeting/2V non-targeting window, PA-1 cells
B1 | 52 nM | 3.2 nM | 24 nM | 0.1 nM | 1.2 fold | 18 fold | 1.1 fold | 73 fold
B2 |  | 9.1 nM | 37.5 nM | 0.025 nM |  |  |  | 
B3 | 61 nM | 2.3 nM | 18 nM | 0.15 nM | 4 fold | 43 fold | 8.4 fold | 360 fold
